Measured values published in patent US20230220104A1.
Read-outs that look alike come from different tables or passages of the source.

Columns and labels:
Experiment in all cases: cell-based or functional assay
[1] = molecular target: human CD73 on cells (H322, MDA-MB-231, HT-144, T cells, CD73-transfected HEK293T) (human) (UniProt P21589)
[2] = molecular target: human CD73 on cells (H322, MDA-MB-231, HT-144, T cells, CD73-transfected HEK293T) (human) (UniProt P21589); remark: listed apart in the source
[3] = molecular target: human CD73 on cells (H322, MDA-MB-231, HT-144, T cells, CD73-transfected HEK293T) (human) (UniProt P21589); remark: listed apart in the source

Sequence of human CD73 on cells (H322, MDA-MB-231, HT-144, T cells, CD73-transfected HEK293T) (human) (P21589 27-549): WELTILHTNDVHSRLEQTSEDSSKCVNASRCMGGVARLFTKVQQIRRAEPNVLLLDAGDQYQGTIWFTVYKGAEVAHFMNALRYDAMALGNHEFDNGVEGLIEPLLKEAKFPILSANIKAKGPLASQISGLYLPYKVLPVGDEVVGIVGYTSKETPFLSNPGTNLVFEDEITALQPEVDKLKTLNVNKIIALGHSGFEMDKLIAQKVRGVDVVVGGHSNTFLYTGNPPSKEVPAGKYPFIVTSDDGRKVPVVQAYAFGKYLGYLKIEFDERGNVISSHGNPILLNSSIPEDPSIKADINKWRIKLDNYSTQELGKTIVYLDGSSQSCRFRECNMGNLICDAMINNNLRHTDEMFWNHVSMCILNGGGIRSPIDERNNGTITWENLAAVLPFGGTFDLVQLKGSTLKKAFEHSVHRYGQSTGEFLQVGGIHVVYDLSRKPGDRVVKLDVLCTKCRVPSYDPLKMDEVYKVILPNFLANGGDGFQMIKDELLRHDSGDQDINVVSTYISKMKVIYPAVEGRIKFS

Substance: Benchmark antibody (antibody having the same sequences as the published variable regions of MEDI9447)
- IC50 of AMP degradation suppressive function (cell line of Table 7 not stated; H322 in FIG. 12) [1]: 0.007 µg/mL
- IC50 of AMP degradation suppressive function, H322 cells [1]: 0.091 µg/mL
- IC50 of AMP degradation suppressive function, MDA-MB-231 cells [1]: 0.111 µg/mL
- IC50 of AMP degradation suppressive function, H322 cells [2]: 0.04 µg/mL
- IC50 of AMP degradation suppressive function, H322 cells [3]: 0.02 µg/mL
